Laboratory results as given in paper PMC6754071.

tested on: T1, PolR (Microlunatus phosphovorus NM-1), ORF:57668f7d; experiment: EMSA; conditions: EMSA: 3.0 ug His-PolR, 1.0 ug poly(dI-dC), 8% native PAGE, buffer not given (cites Zhang 2014); footprinting: 30 min room temperature, DNase I 1 min 25 C
T1 sequence: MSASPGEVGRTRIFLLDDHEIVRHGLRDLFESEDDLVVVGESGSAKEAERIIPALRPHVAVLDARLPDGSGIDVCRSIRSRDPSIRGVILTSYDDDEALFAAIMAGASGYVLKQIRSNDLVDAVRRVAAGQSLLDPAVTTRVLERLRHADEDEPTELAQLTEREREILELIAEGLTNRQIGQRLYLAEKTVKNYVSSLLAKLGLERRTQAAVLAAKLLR

Sequence	binding
AGACGAGTGCTGCCGTGCACCGACTTCGCATCGGCGCCGCAACACAGTCCCCGCCCGTCGTTCGCTCGGCGTTCACCGGCGGGCCCTCGAGTCGTCAGAATGGCTGCCTAGCGTCTGGACCGGAGCCAGTGTCGCTCCTTACGTTCATTGCACGAGTCACACTCCGACAAGGGGAACGAGTGAAGAT (double strand) [pstS (MLP_RS23035) promoter]	binds
ATTTGCAGCACTCCGTTCGCCGATTTGCAGCAGGCTTCTGTTCCGTGTGGTCCCCCGACCCAGGGGACCACGGAAACAACTGCGCAGCCCCCGCCCGAGGATCACCCGGAATCTTCCCCCAGGTTTGCCCTGACCCACAGAGGACGCCGCGGGACGAAGTCAACTTCAGCGTACGGTGGAGCACA (double strand) [ppgk (MLP_RS02595) promoter]	no binding
CAGTTCACAGTCGCGATACTAGGTCGTAAGCCCGCCTCAAGTTGCCGCTCATGGGGTCGCCACACGCAGCTACAGGGAGGGTTCGGGCTGAGTTCACCCCTCGTTCACATCCGAACTTCGCCAGCCGGTCCATTTCGGGCATAGGCTCGAAGTCGAGCTTTTCTGATCAATCCCGAGGAATCC (double strand) [phoU (MLP_RS22885) promoter]	no binding
GACAGCGATCACGGAGATCAGTAGCCAGTCCATGATTGATCTTCCCCTTGCACGGTCAACAACGACAACCCAATCGTCGTGCCATGAGATGGTCGGCCACACGGGTCTTTCGGCTCTATCTGGTCCTTCCTTCGTCACCGGGAGGGCCCGCCGCCGTTCACCCACCGTTCACTGTGCTGGTCG (double strand) [pit (MLP_RS00235) promoter]	binds
TCAGCCATCTGGACAACCTATCGTCCACACCACACGAGATAGCCGAGTTGGTCAGGTATTGATGCGAGTTGGGGTCGAACGTCCCGTCAGATCCGGTTCGAACGCATCACCTTTGAGTGAAGGCTCATCCGACAACGGGGATCAGCACACTCCTAG (double strand) [ppk (MLP_RS23025) promoter]	binds
TCGCTCTCGGTGTTGATCGATCCGGAGCGCCCGTCCAGACCCTGCACCGATCCGTCGAGGGTCGAGACGAAGTTGCTCCGGACGACCGGTCCGGAGCCGCCTTCGGGCCAGCGATAGAGATCGATCAGGTCTGCTCGGCTGAGCTCGGCGGATGGTCGAGGGTCCGCGTG (double strand) [pap (MLP_RS11265) promoter]	no binding
TCGTCTCGGCAGCCCTTGGGTGAACTGTTCTCCGAGCGTGAGTAACGCCTCCGGGCGAGCGAGATGAACTGTTCGTGAATCCGCCGCCCGGGGGCCGTTCCAGGTGGATTTGACCGGTTTCGGAACCCCACGATGGTCGCGTGACCGAAGCTC (double strand) [pit (MLP_RS14415) promoter]	no binding
TGTGTCCCTTCCGTGAAACCTCGTCGGTGAAGTCTGGTGCGGGCGAGGGGAATCCCGCCCGGAGGGGAGGCTAAACCACCCAGGAGAATGAATGGAGTGTGGTGGCGCCTCGCGAGAATCCGAGCCGCTTCGGCGGATCGGCGCCCGAGGCTCCCTCCGGTGACAGCACGTTCACCCTGCC (double strand) [ppgk (MLP_RS12905) promoter]	binds
TTCGACCTCCGTATTCGGCTATTCGACTGTCCACCCTCTTCGTTACCACCGAGGGAGACACGTCACATTCACAACTCCCGGTCTGCGGATCAGACCAGCGATGCTGTCCGTGACTGCGGAAAGCTGACGACCGGAGACTGAGCGCCGGGGACCCGTTAACCCATTGTTCGCCCGGCA (double strand) [ppk2 (MLP_RS02760) promoter]	no binding
